In patent publication US20260217804A1 (BIOARCTIC, published 2026):
Numbering of substitutions follows the chain as printed. Numbers in names are those of the source.

B1: Pyr7.1 (antibody, IgG2c, V domains shown)
VH: KVQLQQSGPELVKPGTSIKMSCKTSGYSFTGYTLNWVKQSPGKNPEWIGLINPYNGITTYNPKFMGKATLTVDKSSSTAYMELLSLTSEDSAVYYCSREGNWEGVYWGQGTLVTVSA
VL: not shown
notes: also called recombinant antibody Pyr7.1; hybridoma clone Pyr7.1
B2: H9L8 (antibody, human IgG1, kappa, V domains shown)
VH: QVQLVQSGPEVKKPGSSVKVSCKASGYSFTGFTMNWVRQTPGKGLEWIGLINPYNGVTTYNQKFKGRVTITADESTRTAYMELLSLTYEDTAVYYCTREGNWEGVYWGQGTPVTVSA
VL: EVVLTQSPLSISVTLGQSASISCRSSQSLLDSNGKTYLHWFILRPGQSPRRLIYLVSILDSGIPDRFSGSGSGTDFTLKISRVEAEDVGVYYCVQGTHFPFTFGGGTKLEIKR
notes: Humanized IgG1/kappa, expressed in CHO cells; also called humanized Pyr12.2 variant H9L8; VH9/VL8
B3: AβpE11-28 monomer (peptide, UniProt P05067 682-699, looked up)
peptide: EVHHQKLVFFAEDVGSNK
modifications: pyroglutamate (pE) at position 11, the N-terminus
notes: range 11-28; The range counts on Aβ numbering, not on APP
B4: H2L7-R71A (antibody, human IgG1, kappa)
heavy: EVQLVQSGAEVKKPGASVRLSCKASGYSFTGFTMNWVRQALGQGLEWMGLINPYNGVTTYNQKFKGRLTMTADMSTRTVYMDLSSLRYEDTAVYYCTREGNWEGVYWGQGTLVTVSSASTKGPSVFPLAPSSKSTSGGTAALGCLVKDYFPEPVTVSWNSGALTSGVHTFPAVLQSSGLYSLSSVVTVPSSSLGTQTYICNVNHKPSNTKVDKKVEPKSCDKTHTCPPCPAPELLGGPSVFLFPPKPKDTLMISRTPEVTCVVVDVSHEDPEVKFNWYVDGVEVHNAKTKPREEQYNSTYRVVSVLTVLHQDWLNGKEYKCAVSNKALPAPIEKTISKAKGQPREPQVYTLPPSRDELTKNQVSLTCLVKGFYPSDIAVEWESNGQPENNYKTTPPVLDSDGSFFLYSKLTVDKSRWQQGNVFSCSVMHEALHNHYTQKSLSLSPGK
light: EIVLTQSPLSLSVTLGQSASISCRSSQSLLDSNGKTYLHWFILRPGQSPRRLIYLVSILDSGVPDRFSGSGSGTDFTLKISRVEAEDVGVYYCVQGTHFPFTFGSGTKLEIKRTVAAPSVFIFPPSDEQLKSGTASVVCLLNNFYPREAKVQWKVDNALQSGNSQESVTEQDSKDSTYSLSSTLTLSKADYEKHKVYACEVTHQGLSSPVTKSFNRGEC
notes: Variant of H2L7 with a change in VH only
B5: Pyr12.2 (antibody, IgG2c, V domains shown)
VH: EVQLQQSGPELVKPGTSIKMSCKASGYSFTGFTMNWVKQSHGKNLEWIGLINPYNGVTTYNQKFKGKATITVDKSSRTAYMELLSLTYEDSAVYYCTREGNWEGVYWGQGTPVTVSA
VL: EVVLTQTPLTLSVTIGQSASISCKSSQSLLDSNGKTYLHWFLLRPGQSPKRLIYLVSILDSGVPDRFTGSGSGTDFTLKISRVEAEDLGIYYCVQGTHFPFTFGSGTKLEIKR
notes: also called recombinant antibody Pyr12.2; hybridoma clone Pyr12.2
B6: H2L7 (antibody, human IgG1, kappa, V domains shown)
VH: EVQLVQSGAEVKKPGASVRLSCKASGYSFTGFTMNWVRQALGQGLEWMGLINPYNGVTTYNQKFKGRLTMTRDMSTRTVYMDLSSLRYEDTAVYYCTREGNWEGVYWGQGTLVTVSS
VL: B2 VL with V2I, I11L, I63V, G105S
notes: Humanized IgG1/kappa, expressed in CHO cells; also called humanized Pyr12.2 variant H2L7; VH2/VL7
B7: H2L7-R71A/R83T (antibody, human IgG1, kappa)
heavy: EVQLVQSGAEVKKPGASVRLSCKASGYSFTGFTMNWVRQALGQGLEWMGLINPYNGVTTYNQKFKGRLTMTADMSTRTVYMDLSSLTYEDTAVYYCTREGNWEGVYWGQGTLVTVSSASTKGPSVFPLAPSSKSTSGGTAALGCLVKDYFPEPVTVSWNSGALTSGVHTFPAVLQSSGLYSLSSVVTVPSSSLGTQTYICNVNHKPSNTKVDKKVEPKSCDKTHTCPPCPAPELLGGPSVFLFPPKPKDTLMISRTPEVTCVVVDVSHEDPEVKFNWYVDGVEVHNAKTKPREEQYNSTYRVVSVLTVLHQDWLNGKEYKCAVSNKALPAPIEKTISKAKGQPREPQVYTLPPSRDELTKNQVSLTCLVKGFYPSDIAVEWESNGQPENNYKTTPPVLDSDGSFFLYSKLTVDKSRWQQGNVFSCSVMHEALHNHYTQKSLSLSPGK
light: B4 light
notes: Variant of H2L7 with changes in VH only
B8: H2L7-K12V/R83T (antibody, human IgG1, kappa, V domains shown)
VH: B6 VH with K12V, R87T
VL: B2 VL with V2I, I11L, I63V, G105S
notes: as for B7
B9: H2L7-K12V/R71A (antibody, human IgG1, kappa)
heavy: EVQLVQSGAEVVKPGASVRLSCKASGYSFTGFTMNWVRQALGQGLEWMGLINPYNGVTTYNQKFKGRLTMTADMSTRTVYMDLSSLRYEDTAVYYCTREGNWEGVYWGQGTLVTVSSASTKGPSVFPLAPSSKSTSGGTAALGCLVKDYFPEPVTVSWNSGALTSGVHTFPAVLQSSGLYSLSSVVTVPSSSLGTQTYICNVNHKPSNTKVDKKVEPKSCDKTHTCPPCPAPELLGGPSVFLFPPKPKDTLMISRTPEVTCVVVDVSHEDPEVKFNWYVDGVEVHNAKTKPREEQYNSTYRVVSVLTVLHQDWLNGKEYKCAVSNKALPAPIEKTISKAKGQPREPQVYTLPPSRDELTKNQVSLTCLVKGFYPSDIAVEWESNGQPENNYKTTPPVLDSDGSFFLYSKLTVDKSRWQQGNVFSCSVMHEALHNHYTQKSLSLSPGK
light: B4 light
notes: as for B7
B10: H2L7-K12V/R71A/R83T (antibody, human IgG1, kappa)
heavy: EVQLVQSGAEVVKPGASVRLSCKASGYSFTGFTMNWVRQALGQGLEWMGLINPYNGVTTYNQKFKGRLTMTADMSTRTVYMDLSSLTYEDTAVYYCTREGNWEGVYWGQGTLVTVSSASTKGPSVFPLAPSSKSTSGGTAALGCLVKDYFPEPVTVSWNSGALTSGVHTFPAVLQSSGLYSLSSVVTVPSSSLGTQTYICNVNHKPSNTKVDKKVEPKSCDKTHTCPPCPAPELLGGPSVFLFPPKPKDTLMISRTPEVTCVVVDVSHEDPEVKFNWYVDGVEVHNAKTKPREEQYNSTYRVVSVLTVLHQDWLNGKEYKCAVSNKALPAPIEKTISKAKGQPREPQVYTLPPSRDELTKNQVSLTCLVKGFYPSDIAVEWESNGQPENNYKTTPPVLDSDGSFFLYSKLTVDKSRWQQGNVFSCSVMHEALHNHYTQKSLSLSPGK
light: B4 light
notes: as for B7

Tests used:
[1] = target: T1, Aβ1-40 monomer (UniProt P05067 672-711); test: inhibition ELISA
T1 construct: range 1-40
Experimental: (§1) The humanized antibodies were incubated at a fixed concentration (0.5 μg/ml) with titrating concentrations of the different Aβ antigens. […] The samples were incubated on the plate for 25 min without shaking followed by washing, incubation with detection antibody, another washing step and finally incubation with alkaline phosphatase substrate.

[2] = target: T2, AβpE11-40 monomer (UniProt P05067 682-711, pyroglutamate (pE) at position 11, the N-terminus); test: inhibition ELISA
T2 construct: range 11-40; The range counts on Aβ numbering, not on APP
T2 peptide (looked up): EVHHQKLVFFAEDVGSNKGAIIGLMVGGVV
Experimental: as §1

[3] = target: T3, Aβ1-42 monomer (UniProt P05067 672-713); test: capture ELISA: plate coated with rabbit anti-Aβ42, peptide monomer captured, hybridoma supernatant, anti-mouse IgG-HRP, OD450 (Example 1)
T3 construct: range 1-42; The range counts on Aβ numbering, not on APP; also called monomeric Aβ1-42

[4] = target: T4, Aβ2-42 monomer (UniProt P05067 673-713); test: as above
T4 construct: range 2-42; The range counts on Aβ numbering, not on APP

[5] = target: T5, Aβ1-42 protofibrils (UniProt P05067 672-713); test: inhibition ELISA
T5 construct: range 1-42; Soluble aggregates of Aβ1-42; The range counts on Aβ numbering, not on APP
Experimental: as §1

[6] = target: T6, Aβ1-28 monomer (UniProt P05067 672-699); test: inhibition ELISA
T6 construct: range 1-28; The range counts on Aβ numbering, not on APP
Experimental: as §1

[7] = target: T7, Aβ2-28 monomer (UniProt P05067 673-699); test: inhibition ELISA
T7 construct: range 2-28; The range counts on Aβ numbering, not on APP
Experimental: as §1

[8] = target: T8, Aβ3-28 monomer (UniProt P05067 674-699); test: inhibition ELISA
T8 construct: range 3-28; The range counts on Aβ numbering, not on APP
Experimental: as §1

[9] = target: T9, AβpE3-28 monomer (UniProt P05067 674-699, pyroglutamate (pE) at position 3, the N-terminus); test: inhibition ELISA
T9 construct: range 3-28; The range counts on Aβ numbering, not on APP
Experimental: as §1

[10] = target: T10, Aβ4-28 monomer (UniProt P05067 675-699); test: inhibition ELISA
T10 construct: range 4-28; The range counts on Aβ numbering, not on APP
Experimental: as §1

[11] = target: T11, Aβ5-28 monomer (UniProt P05067 676-699); test: inhibition ELISA
T11 construct: range 5-28; The range counts on Aβ numbering, not on APP
Experimental: as §1

[12] = target: B3; test: inhibition ELISA
Experimental: as §1

[13] = target: B6; test: inhibition ELISA: antigen in solution titrated, antibody fixed (0.5 µg/ml), AβpE3-40 coat
Experimental: as §1

[14] = target: B2; test: as above
Experimental: as §1

[15] = target: B6; test: inhibition ELISA as in Example 6: antigen in solution titrated, antibody fixed, AβpE3-40 coat
Experimental: as §1

[16] = target: B9; test: as above
Experimental: as §1

[17] = target: B8; test: as above
Experimental: as §1

[18] = target: T12, AβpE3-40 monomer (UniProt P05067 674-711, pyroglutamate (pE) at position 3, the N-terminus); test: SPR (Biacore 8K), antibody immobilised on CM5, monomer injected, 1:1 model
T12 construct: range 3-40; also called monomeric AβpE3-40
Experimental: For the measurements, 5 μg/ml of […] antibody was immobilized on the chip. The monomer was then injected over the chip using a 2-fold dilution in five steps starting at 250 nM, using 2 min injection of every […] concentration and a 20 min dissociation time. Regeneration of the surface between cycles was done by injecting 30 μl 3 M MgCl₂. The binding data was fitted to a 1:1 interaction model.
In all SPR experiments, 1×HBS-EP+ (Cytiva, cat. no. BR100669) was used to dilute antibodies and target antigens. Experiments were performed at 25° C.
Affinity evaluation and Ko determination by surface plasmon resonance: Binding interactions between antigens and antibodies were evaluated by SPR using a Biacore 8K instrument (Cytiva) according to standard procedures.

Binder | binding result [1] | binding result [5] | binding result [8] | binding result [9] | other results
B1 | no binding (tested: 5 µM) |  |  |  | binding result [2]: no binding (tested: 5 µM); binding result [3]: no binding (tested: no concentration on the sheet); binding result [4]: no binding (tested: no concentration on the sheet)
B2 | no binding (tested: 12.5 µM) | no binding (tested: 500 nM) | binds | binds | binding result [6]: no binding (tested: 12.5 µM); binding result [7]: no binding (tested: 12.5 µM); binding result [10]: no binding (tested: 12.5 µM); binding result [11]: no binding (tested: 12.5 µM); binding result [12]: no binding (tested: 12.5 µM)
B3 |  |  |  |  | IC50 [13]: > 12.5 µM; IC50 [14]: > 12.5 µM; IC50 [15]: > 12.5 µM; IC50 [16]: > 12.5 µM; IC50 [17]: > 12.5 µM
B4 | no binding (tested: 500 nM) | no binding (tested: 132 nM) |  |  | 
B5 | no binding (tested: 5 µM) |  |  |  | binding result [2]: no binding (tested: 5 µM); binding result [3]: no binding (tested: no concentration on the sheet); binding result [4]: no binding (tested: no concentration on the sheet)
B6 | no binding (tested: 12.5 µM) | no binding (tested: 500 nM) | binds | binds | binding result [6]: no binding (tested: 12500 nM); binding result [7]: no binding (tested: 12500 nM); binding result [10]: no binding (tested: 12500 nM); binding result [11]: no binding (tested: 12500 nM); binding result [12]: no binding (tested: 12500 nM)
B7 | no binding (tested: 500 nM) | no binding (tested: 132 nM) |  |  | Kd [18]: 0.00462 µM; koff [18]: 0.000225 s⁻¹; kon [18]: 50100 M⁻¹ s⁻¹
B8 | no binding (tested: 500 nM) | no binding (tested: 132 nM) | binds | binds | 
B9 | no binding (tested: 500 nM) | no binding (tested: 132 nM) | binds | binds | 
B10 | no binding (tested: 500 nM) | no binding (tested: 132 nM) |  |  | 
